Data: patent US5773694

Tests used:
[1] = target: Ace-AMP1 (Allium cepa - Antimicrobial Protein 1), mature protein purified from Allium cepa seeds (Allium cepa)
[2] = target: reduced and S-carboxyamidomethylated Ace-AMP1 (Allium cepa)

Row | Relative antifungal activity (% of control activity) after protease digestion (% of control activity) [1] | Substance | further results
1 | 90 | Trypsin (enzyme) | 
2 |  | endoproteinase Arg-C (sequencing grade, Boehringer) (enzyme) | peptides separated by RP-HPLC after digestion (separable peptides) [2]: > 10
3 | 80 | Chymotrypsin (enzyme) | 
4 |  | endoproteinase Asp-N (sequencing grade, Boehringer) (enzyme) | protein fragments separated by RP-HPLC after digestion (protein fragments) [2]: 3
5 | 60 | Proteinase K (enzyme) | 
6 | 5 | Pronase E (enzyme) | 
